Experiments:
[1] = target: T1, YT521-B YTH domain (Rattus norvegicus, UniProt Q9QY02 347-502); assay: ITC; 20 C; 410 uM RNA into 14 uM protein; 25 mM NaH2PO4, 25 mM NaCl, 10 mM beta-mercaptoethanol, pH 7; ITC and NMR titrations at 20 C, structure at 30 C
[2] = target: T1, YT521-B YTH domain; assay: ITC; 20 C; 125 uM RNA into 10 uM protein; 25 mM NaH2PO4, 25 mM NaCl, 10 mM beta-mercaptoethanol, pH 7; ITC and NMR titrations at 20 C, structure at 30 C

| Binder | Kd [1] | Kd [2] |
| --- | --- | --- |
| UGACAC (ssRNA) [5'-UGACAC-3'] | 5000 nM | – |
| UGACAC (ssRNA, N6-methyladenosine at position 3) [5'-UGm6ACAC-3'] | – | 100 nM |

Source: article PMC4267619
